Assay results as given in publication PMC7020754.

T1: Rv0023 (XRE family transcription regulator) (Mycobacterium tuberculosis, UniProt P9WMI3 1-256)
T1 sequence: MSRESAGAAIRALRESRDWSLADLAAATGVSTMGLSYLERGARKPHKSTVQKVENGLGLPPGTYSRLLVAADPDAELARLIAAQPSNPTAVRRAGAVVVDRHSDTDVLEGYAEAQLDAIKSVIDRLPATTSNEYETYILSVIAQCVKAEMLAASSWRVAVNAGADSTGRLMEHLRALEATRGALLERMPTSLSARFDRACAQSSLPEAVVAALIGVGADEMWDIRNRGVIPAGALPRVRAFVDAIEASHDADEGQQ

B1: OL1M (dsDNA)
DNA 1: CACCCCTTATGTAGAGACGTGTGTATCGCGATTCTCTTGC
DNA 2: GCAAGAGAATCGCGATACACACGTCTCTACATAAGGGGTG
B2: OL3M (dsDNA)
DNA 1: AGAGCCCGCCACAGACAGAGACGCGTGTGCCTATGTTTCG
DNA 2: CGAAACATAGGCACACGCGTCTCTGTCTGTGGCGGGCTCT

Molecular target: T1, Rv0023 (XRE family transcription …)
Test: EMSA; 8 pmol protein
Settings: protein: recombinant; tags: His (implied by Ni-NTA purification; pET23a, also printed pET21b); chain copies: 2; label: 32P; blunt

Row | Binder | binding result
1 | B1 | no binding
2 | B2 | no binding
